Test results as given in publication PMC9788556, “Nanobodies against Pfs230 block Plasmodium falciparum transmission” (Biochemical Journal, 2022).
Substitutions are numbered along the chain they refer to.

B1: nanobody A10 (VHH)
VHH: QVQLQESGGGLVQAGSSLRLSCAASGGTFSNYAMGWFRQAPGKEREFVAAIGWSGGTYYTDSVEGRFTISRDNAKNTVYLQMNSLKPEDTAVYYCAAKRSGSSWSERGYDYWGQGTQVTVSS
notes: From a phage display library (pMES4) of an alpaca immunized with Pfs230 D1D2; source: E. coli WK6, periplasmic extract, purified (HisTrap)
B2: nanobody G2 (VHH)
VHH: QVQLQESGGGLVQAGGSLRLSCAASGRTFSNYFMGWFRQAPGKEREFVAAVSWSGGSTYYADSVKGRLTISRDNAKNTVYLQMNSLKPEDTAVYYCAAGERYFPMEPRRGYDYWGQGTQVTVSS
notes: as for B1
B3: nanobody G5 (VHH)
VHH: QVQLQESGGGLVQAGGSLRLSCAASGRTFNDYAMYWFRQAPGKEREFVADITWSGSSTYYADSVKGRFTISRDNAKNTVFLQMNSLKPEDTALYYCAADSRYYGIGIGTPRYWGQGTQVTVSS
notes: as for B1
B4: nanobody A11 (VHH)
VHH: QVQLQESGGGLVQPGESLRLSCAASGRTSSSYAMGWFRQAPGKEREFVASISWSGGSTYYADSVKGRFTLSRDNAKNTVYLQMNSLKPEDTAVYYCAADGIFYSDYPLSVDDFHSWGQGTQVTVSS
notes: as for B1
B5: nanobody D6 (VHH)
VHH: QVQLQESGGGLVQAGDSLRLSCAASGRTFSSYFMGWFRQAPGKEREFVAAISWSGGSTYYADSVKGRFTISRDNVKNTVYLQMNSLEPEDAAVYYCAGGGSYYPMSPRNGMDYWGKGTQVTVSS
notes: as for B1
B6: nanobody B4 (VHH)
VHH: QVQLQESGGGLVQPGGSLRLSCAASGFTLDYYGIGWFRQAPGKEREGVSCISSSDGSTYYADSVKGRFTISRDNAKNTVYLQMNSLKPEDTAVYYCAADLTGIGCTTAQAMGVIGDFGDFGSWGQGTQVTVSS
notes: as for B1
B7: nanobody D11 (VHH)
VHH: B1 VHH with G27R, N31S, K75E, R99A
notes: as for B1
B8: nanobody E1 (VHH)
VHH: QVQLQESGGGLVQPGGSLRLSCAASGRTFSSYFMGWFRQAPGKGRVFVASISWSGGSTYYADSVKGRFTISRDNAENTVYLQMNSLKPEDTAVYYCAAGTRATPLDWASGMDYWGKGTQVTVSS
notes: as for B1
B9: nanobody E11 (VHH)
VHH: B6 VHH with L29S, S49A, F68S, T101S, G112D
notes: as for B1
B10: nanobody D1 (VHH)
VHH: QVQLQESGGGLVQAGDSLRLSCTASGRTFSNHAMGWFRQAPGKEREIVAVIFGTGRNSWYVDSVKGRFTISRDNAKNTVALQMNRLKPEDTAVYYCASGRTWYSGSSMAEYDYWGQGTQVTVSS
notes: Not to be confused with the D1 domain of Pfs230; From a phage display library (pMES4) of an alpaca immunized with Pfs230 D1D2; also called D1 (nanobody); source: E. coli WK6, periplasmic extract, purified (HisTrap)
B11: Pfs230 D1D2 (aa 587–889) (domain or fragment, Plasmodium falciparum, UniProt P68874 587-889, looked up)
chain: TNKEYVCDFTDQLKPTESGPKVKKCEVKVNEPLIKVKIICPLKGSVEKLYDNIEYVPKKSPYVVLTKEETKLKEKLLSKLIYGLLISPTVNEKENNFKEGVIEFTLPPVVHKATVFYFICDNSKTEDDNKKGNRGIVEVYVEPYGNKINGCAFLDEDEEEEKYGNQIEEDEHNEKIKMKTFFTQNIYKKNNIYPCYMKLYSGDIGGILFPKNIKSTTCFEEMIPYNKEIKWNKENKSLGNLVNNSVVYNKEMNAKYFNVQYVHIPTSYKDTLNLFCSIILKEEESNLISTSYLVYVSINEELN
notes: used untagged; also called first two 6-cys domains of Pfs230; source: Sf21 insect cells (baculovirus), secreted, purified (Ni-NTA, TEV cleavage, SEC); not shown: His8, N-terminal, cleaved
B12: Pfs230 Pro-D1D2 (aa 532–889) (domain or fragment, Plasmodium falciparum, UniProt P68874 532-889, looked up)
chain: DGENVIKIIRSVLQSGALPSVGVDELDKIDLSYETTESGDTAVSEDSYDKYASNNTNKEYVCDFTDQLKPTESGPKVKKCEVKVNEPLIKVKIICPLKGSVEKLYDNIEYVPKKSPYVVLTKEETKLKEKLLSKLIYGLLISPTVNEKENNFKEGVIEFTLPPVVHKATVFYFICDNSKTEDDNKKGNRGIVEVYVEPYGNKINGCAFLDEDEEEEKYGNQIEEDEHNEKIKMKTFFTQNIYKKNNIYPCYMKLYSGDIGGILFPKNIKSTTCFEEMIPYNKEIKWNKENKSLGNLVNNSVVYNKEMNAKYFNVQYVHIPTSYKDTLNLFCSIILKEEESNLISTSYLVYVSINEELN
notes: Pfs230 of Plasmodium falciparum (PF3D7_0209000), amino acids 532-889: a part of the prodomain and 6-cys domains D1 and D2; used untagged; source: Sf21 insect cells (baculovirus), secreted, purified (Ni-NTA, TEV cleavage, SEC); not shown: His8, N-terminal, cleaved
B13: nanobody F5 (VHH)
VHH: QVQLQESGGGLVQPGGSLRLSCAASGFTLDRYAIGWFRQAPGKEREGVSCISSSDGSTYYADSVKGRFTISRDNAKNTVYLQMNSLKPEDTAVYYCARDHGPCTVLADILYDYGMDYWGKGTQVTVSS
notes: From a phage display library (pMES4) of an alpaca immunized with Pfs230 D1D2; also called anti-Pfs230 F5; source: E. coli WK6, periplasmic extract, purified (HisTrap)
B14: nanobody F10 (VHH)
VHH: B5 VHH with D16G, S31D, I51V, V75A, Y80F, E87K, A91T, R108Y, N109D
notes: From a phage display library (pMES4) of an alpaca immunized with Pfs230 D1D2; also called anti-Pfs230 F10; source: E. coli WK6, periplasmic extract, purified (HisTrap)

Target: T1, Pfs230 D1 (aa 587–731) (Plasmodium falciparum 3D7, UniProt P68874)
T1 construct: used untagged; also called first 6-cys domain of Pfs230; source: Sf21 insect cells (baculovirus), secreted, purified (Ni-NTA, TEV cleavage, SEC); not shown: His8, N-terminal, cleaved
Assay: BLI; Octet RED96e; monomeric nanobodies (5 µg/ml) on Ni-NTA sensor tips; untagged Pfs230 D1D2 6 to 200 nM or untagged Pfs230 D1 0.8 to 100 nM; PBS pH 7.4, 0.1% BSA, 0.05% TWEEN-20, 25°C; global 1 : 1 fit
Settings: both partners purified

**Q.** Does B1 bind?
**A.** binds

**Q.** Does B2 bind?
**A.** binds

**Q.** Does B3 bind?
**A.** binds

**Q.** Does B4 bind?
**A.** binds

**Q.** Does B5 bind?
**A.** binds

**Q.** Does B6 bind?
**A.** binds

**Q.** Does B7 bind?
**A.** binds

**Q.** Does B8 bind?
**A.** binds

**Q.** Does B9 bind?
**A.** binds

**Q.** Does B10 bind?
**A.** binds

Target: B11
Assay: as above
Settings: both partners purified

**Q.** Does B6 bind?
**A.** binds

**Q.** Does B7 bind?
**A.** binds

**Q.** Does B8 bind?
**A.** binds

**Q.** Does B9 bind?
**A.** binds

Target: B11
Assay: far-Western, overlay or dot blot; western blot: 250 ng untagged Pfs230 D1D2 separated on a 4–12% Bis-Tris gel in non-reducing conditions, on PVDF, probed with 0.5 µg/ml nanobody overnight at 4°C
Settings: both partners purified

**Q.** Does B1 bind?
**A.** binds

**Q.** Does B2 bind?
**A.** binds

**Q.** Does B3 bind?
**A.** binds

Target: T2, F5-Fc (alpaca)
T2 construct: as the VHH of m13 (nanobody F5); also called F5 nanobody-Fc fusion; source: HEK293, transient transfection, purified from supernatant (HiTrap PrismA, SEC)
Assay: BLI; Octet RED96e; nanobody-Fc or LMIV230-01 (5 µg/ml) on anti-hIgG Fc capture sensor tips; untagged Pfs230 D1D2 or Pfs230 Pro-D1D2 3 to 100 nM or 94–3000 nM; PBS pH 7.4, 0.1% BSA, 0.05% TWEEN-20, 25°C; global 1 : 1 fit
Settings: both partners purified

**Q.** How did the Kd turn out when B11 was run?
**A.** 570 pM

**Q.** B12 was tested. Which Kd did it give?
**A.** 118000 pM

Target: T3, F10-Fc (alpaca)
T3 construct: as the VHH of m14 (nanobody F10); also called F10 nanobody-Fc fusion; source: HEK293, transient transfection, purified from supernatant (HiTrap PrismA, SEC)
Assay: as above
Settings: both partners purified

**Q.** B11 was tested. Which Kd did it give?
**A.** 130 pM

Target: B12
Assay: SEC; size shift assay: Pfs230 Pro-D1D2 or Pfs230 D1D2 incubated with nanobodies or LMIV230-01 at different molar ratios for 1 h on ice; SD200 3.2/300 column, 20 mM HEPES pH 7.5, 150 mM NaCl
Settings: both partners purified

**Q.** Which “stoichiometry N” value does the source give for B13 here?
**A.** 1

**Q.** B14 was tested. Which “stoichiometry N” value did it give?
**A.** 1

Target: B11
Assay: far-Western, overlay or dot blot; western blot: 250 ng untagged Pfs230 D1D2 separated on a 4–12% Bis-Tris gel in reducing conditions, on PVDF, probed with 0.5 µg/ml nanobody overnight at 4°C
Settings: both partners purified

**Q.** Does B4 bind?
**A.** binds

**Q.** Does B5 bind?
**A.** binds
